Results as given in PMC11303627 (Cancer Immunology, Immunotherapy : CII, 2024).

Biological target: T1, human TF-Fc (Homo sapiens, UniProt P13726)
T1 construct: tissue factor (TF; CD142), human; Construct limits may be in Supplementary file1; also called human tissue factor Fc fusion protein; HuTF; source: Expi293F, transfected (pcDNA3.1(-), Genscript), purified from supernatant (Protein A; for SPR also SEC on Superdex 200 after 2 mM DTT)
Assay: SPR; human TF-Fc amine-coupled to a CM5 chip (target 500 RU); scFvFc flowed over at 18.75-3.125 nM in PBS-EP (0.01% Tween20, 300 mM NaCl PBS, pH 7.4), 30 µL/min, contact 180 s, dissociation 600 s; 25 °C; Biacore X100; global fit, 1:1 binding model
Conditions: both partners purified

T1 sequence (P13726 33-251): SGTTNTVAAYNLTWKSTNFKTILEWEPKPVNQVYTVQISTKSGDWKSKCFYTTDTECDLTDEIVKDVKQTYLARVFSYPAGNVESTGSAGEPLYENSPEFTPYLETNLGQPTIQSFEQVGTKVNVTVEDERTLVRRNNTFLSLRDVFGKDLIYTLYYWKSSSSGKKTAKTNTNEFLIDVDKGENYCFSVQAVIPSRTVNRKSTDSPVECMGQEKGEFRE

B1: TF8-5G9 anti-TF scFvFc (scFv, V domains shown)
VH: EIQLQQSGAELVRPGALVKLSCKASGFNIKDYYMHWVKQRPEQGLEWIGLIDPENGNTIYDPKFQGKASITADTSSNTAYLQLSSLTSEDTAVYYCARDNSYYFDYWGQGTTLTVSS
VL: DIKMTQSPSSMYASLGERVTITCKASQDIRKYLNWYQQKPWKSPKTLIYYATSLADGVPSRFSGSGSGQDYSLTISSLESDDTATYYCLQHGESPYTFGGGTKLEIN
notes: also called TF8-5G9 scFvFc; TF85G9 scFvFc; source: Expi293F, transfected (pcDNA3.1(-)), purified from supernatant (Protein A, then SEC on Superdex 200 after 2 mM DTT)
  Kd: 0.37 nM

B2: hATR-5 scFvFc (scFv, V domains shown)
VH: QVQLLESGAVLARPGTSVKISCKASGFNIKDYYMHWVKQRPGQGLEWIGGNDPANGHSMYDPKFQGRVTITADTSTSTVFMELSSLRSEDTAVYYCARDSGYAMDYWGQGTLVTVSS
VL: DIQMTQSPSSLSASVGDRVTITCKASQDIKSFLSWYQQKPEKAPKSLIYYATSLADGVPSRFSGSGSGTDYTLTISSLQPEDFATYYCLQHGESPYTFGGGTKVEIK
notes: source: Expi293F, transfected (pcDNA3.1(-)), purified from supernatant (Protein A, then SEC on Superdex 200 after 2 mM DTT)
  Kd: 0.46 nM
